Test results as given in patent publication US5837499A, “DNA encoding C5A receptor antagonists having substantially no agonist activity and methods of expressing same” (priority 1995, dated 1998).
Residue numbers refer to the chain shown, from its start. Numbers in names are those of the source. Values belong to the molecule of their own block, whether it stands above or below them. Where a SMILES comes first, the peptide text is derived from it.

Assays:
C5a receptor [1] = target: T1, C5a receptor (Homo sapiens, UniProt P21730); experiment: C5a induced Ca++ rise in fura-2 loaded neutrophils (antagonist IC50 / agonist EC50); format: cell-based; settings: for Concentration up to which tested and agonist activity not detected (calcium rise): highest concentration tested, agonist activity was not detected
T1 construct: Neutrophils were purified from human peripheral blood; endogenous in cells; host or cells: neutrophils from human peripheral blood
T1 sequence (P21730 1-350): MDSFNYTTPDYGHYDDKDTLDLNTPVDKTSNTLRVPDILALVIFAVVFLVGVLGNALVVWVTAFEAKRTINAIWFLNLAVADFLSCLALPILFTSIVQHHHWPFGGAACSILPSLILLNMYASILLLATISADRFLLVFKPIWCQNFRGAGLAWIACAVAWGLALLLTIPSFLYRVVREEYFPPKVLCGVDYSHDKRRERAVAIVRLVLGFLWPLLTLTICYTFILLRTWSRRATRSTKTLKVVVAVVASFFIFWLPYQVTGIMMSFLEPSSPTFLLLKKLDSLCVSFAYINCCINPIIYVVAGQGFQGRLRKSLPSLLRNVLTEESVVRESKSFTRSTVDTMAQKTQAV
Description: The antagonism of the instant C5a analogues may be quantified as an IC50 in the calcium rise assay disclosed in Agents and Actions 21:375-378 (1987), described in detail in Example 7.
See Hugli et al., CRC Crit. Rev. Immunol. 1:321-326 (1981) and PCT WO 92/10205. A quantitative measure of this property may also be obtained using the calcium rise assay disclosed in Seligmann et al., supra, also described in Example 7. EC50 is a measure of agonistic activity. […] Applicants have not detected agonist activity of the instant C5a analogues up to a concentration of at Least about 8.0×10^-7 M, and preferably at least about 3.0×10^-6 M in the same calcium rise assay.
Recombinant human C5a was dissolved in Hanks buffer containing 0.01% Tween-20, and all stock dilutions of C5a were made in this buffer. The acetoxymethyl ester of fura-2 (fura 2AM, Molecular Probes) was dissolved in DMSO. Neutrophils were purified from human peripheral blood by sedimentation in 6% hetastarch (HESPAN, DuPont, Waukegan, Ill.), followed by counter flow elutriation as described in Chapman-Kirkland et al., J. Immunol. Meth. 142:95-104 (1991). Purified cells (2×10^6 /ml) were mixed with 0.2 uM fura- 2AM and incubated for 30 min at 37° C. in HEPES buffered Hanks solution without calcium or magnesium. Fifteen minutes before the assay, the cell suspension was transferred to a curvette containing a stir bar and calcium was added to 1 mM. The cell suspension was incubated with stirring at 37° C. Assays were terminated within 5 h of cell purification and a standard control response was obtained periodically to insure that the cell responses were not changing over the time of the experiment. The amount of fluorescence was determined using an SLM 8000 spectrofluorometer (SLM-Aminco Instruments, Urbana, Ill.). Curvettes were placed in the fluorometer and after obtaining a baseline for 10 sec, the C5a receptor antagonists to be tested for antagonistic properties were added and any change in fluoresence excitation ratio of 340 nm/380 nm (emission of 510 nm) was measured. Forty seconds after analogue addition, a challenge dose of C5a was added to a final concentration of 100 pM and the resulting change in excitation ratio was measured.
IC50 values were used as a measure of antagonist potency. These values are defined as the concentration of C5a analogue needed to reduce the calcium rise response of the 100 pM C5a challenge dose by 50%. EC50 values were used as a measure of agonist potency. […]

C5a receptor [2] = target: T1, C5a receptor; experiment: Receptor binding assay: displacement of [125I]Bolton-Hunter-labelled C5a from PMNL membranes; settings: Table 4, [125I]BH-C5a 4.0 pM, 120 min at 4° C., Cheng-Prusoff
Description: C5a and C5a receptor antagonists were tested for their affinity for the C5a receptor. […] PMNLs were resuspended in Hanks balanced salt solution, without Ca^++ and Mg^++ and which contained 10 mM HEPES; at pH 7.3, 2.5 mM MgCl2, 100 units/ml DNAse I, 0.1 mM PMISF, 10 μg/ml aprotonin and 10 μg/ml leupeptin. They were then equilibrated at 400 psi for 20 min at 4° C. in a nitrogen cavitation bomb. After evacuation into 3 volumes 0.5 M KHCO3 containing 25 mM EDTA and the protease inhibitors listed above, the gelatinous material was removed with forceps and the mixture was centrifuged at 400×g for 10 min at 4° C. The resulting supernatant was centrifuged at 50,000×g for 60 min at 4° C. The pellets from the aliquots representing 200×10^6 cells were stored at -70° C. For binding studies, these membranes were resuspended at an equivalent of 20×10^6 cells/ml in 50 mM HEPES at pH 7.3, containing 1 mM CaCl2, 5 mM MgCl2, 0.1 mM PMSF, 0.1% bacitracin and 0.5% BSA.
Nonspecific binding was determined in the presence of 10 nM unlabelled C5a. The binding reaction was initiated by the addition of the PMNL membranes and was continued for 120 min at 4° C. Bound and free radioactivity were separated by vacuum filtration through GF/C glass fiber filters (Whatman), pretreated for 90 min with 0.05% PEI (polyethyleneimine) using a Cell Harvester (Brandel, Gaithersburg, Md.). Filters were washed with 3×5 ml of ice-cold 5 mM Tris buffer at pH 7.4 and counted in a multiwell Gamma counter (Genesys). Data were analyzed using the non-linear regression analysis program, RS/1 (Bolt, Beranek and Newman, Boston) and expressed as IC50 values. The results are set forth below in Table 4 as Ki values using the Cheng-Presoff equation. See Braunwalder et al., supra

[3] = tested on: New Zealand White rabbits (C5a-induced enhancement in vascular permeability); experiment: Rabbit dermal model of inflammation ([125I]-BSA exudation after intradermal C5a); format: in vivo
Description: All experiments were performed on male New Zealand White rabbits weighing 2.5-3.0 kg. The backs; of the rabbits were shaved and 40-50 skin sites were designated with markers of different colors. Different stimuli (i.e., C5a, C5a analogue, C5a+C5a analogue, vehicle control, etc.) were injected intradermally at 0.1 ml/site using a sterile, disposable, 26 gauge, 0.5 in. needle and 1.0 cc tuberculin syringe. I.D. injections were administered in replicates of six, roughly 45 minutes before euthanization. C5a alone was injected at a dose of 50 ng/site, and the C5a receptor antagonists were co-injected at various concentrations with the same dose of C5a. At 20 minutes prior to euthanization, 18-36 uCi of [125I]-labeled bovine serum albumin in 1.0 ml physiological saline were introduced into the systemic circulation via the marginal auricular vein. At 45 minutes, the rabbit was euthanized with an I.V. overdose of sodium pentobarbital. […]
After death, the dorsal skin was excised and pinned to a wooden dissecting board. […] This procedure reduced variation among skin sites and decreased background radioactivity. […] Injection sites were then analyzed for their radioactive content using a Gamma Counter (Genesys).

[4] = tested on: New Zealand White rabbits (C5a-induced neutropenia); experiment: C5a-induced neutropenia in the rabbit; format: in vivo; settings: i.v. bolus; for Inhibition of C5a-induced neutropenia vs vehicle-treated rabbits: 100 ng C5a i.v.
Description: All experiments were performed on male New Zealand White rabbits weighing 2.5-3.0 kg. Rabbits were anesthetized with 10 mg/kg xylazine and 50 mg/kg ketamine administered in combination intramuscularly. A 25 gauge butterfly catheter was inserted in the lateral ear vein to use for infusions. Each blood sample (0.2 ml) was collected from the central ear artery into a plastic syringe fitted with a 25 gauge, 5/8 inch needle and charged with 7.5% EDTA as an anticoagulant. Blood was immediately expressed into a microcentrifuge tubes containing 10 microliters of 7.5% EDTA. An initial arterial blood sample (#1) was obtained and immediately thereafter vehicle or the C5a analogue of Example 8 was infused intravenously (bolus injection). Twenty seconds later, a second blood sample (#2) was obtained and twenty seconds thereafter 100 ng of C5a in 0.2 ml were infused intravenously (bolus injection). Twenty seconds later, a third blood (#3) sample was taken. Thirty minutes later, a second round of blood sample (#4)--20 seconds--C5a infusion--20 seconds--blood sample (#5) was performed. Blood samples were evaluated by automated hematologic analysis (Technicon H*1) using software specific for rabbit blood. Reductions in neutrophil counts (number per milliliter) induced by C5a(C5a-induced neutropenia, determined by comparing blood sample #3 to #2 and #5 to #4) were compared between vehicle-treated and C5a analogue-treated animals.

Agonist / antagonist character (C5a receptor [1]; result in words): significant agonist activity
Molecule: CC[C@H](C)[C@H](N)C(=O)N[C@@H](CO)C(=O)N[C@@H](Cc1ccccc1)C(=O)N[C@@H](CCCCN)C(=O)N[C@@H](CC(=O)O)C(=O)N[C@@H](CCSC)C(=O)N[C@@H](CCC(N)=O)C(=O)N[C@@H](CC(C)C)C(=O)NCC(=O)N[C@@H](CCCNC(=N)N)C(=O)O [Decapeptide, reference compound] (H-ISFKDMQLGR-OH)

Ki (C5a receptor [2]): 0.2 nM
Concentration up to which tested and agonist activity not detected (calcium rise) (C5a receptor [1]): > 3 µM
B1: C5a(1-71,T1M,C27S,Q71C) (protein, UniProt P01031 678-748, looked up, fragment T1M C27S Q71C)
chain: MLQKKIEEIAAKYKHSVVKKCCYDGASVNNDETCEQRAARISLGPRCIKAFTECCVVASQLRANISHKDMC
modifications: C5a anaphylatoxin
ID50 (50% reduction in the radioactivity produced by C5a) ([3]; intradermal co-injection with 50 ng C5a/site): 70 ng/site
Pro-inflammatory reaction (agonist properties in vivo) ([3]; intradermal, 175 ng/site): did not cause a pro- inflammatory reaction
Inhibition of C5a-induced neutropenia vs vehicle-treated rabbits ([4]; 30-minute C5a challenge interval): 41%
Inhibition of C5a-induced neutropenia vs vehicle-treated rabbits ([4]; 40-second C5a challenge interval): 67%
Effect on baseline neutrophil counts (agonistic, C5a-like properties) ([4]; before C5a challenge): did not alter baseline neutrophil counts from normal

Ki (C5a receptor [2]): 0.15 nM
B3: C5a(1-71,T1M,C27S,Q71H) (protein, UniProt P01031 678-748, looked up, fragment T1M C27S Q71H)
chain: B1 chain with C71H
modifications: C5a anaphylatoxin
notes: comparison agonist

Ki (C5a receptor [2]): 3 nM
B7: C5a(1-71,T1M,C27S) (protein, UniProt P01031 678-748, looked up, fragment T1M C27S)
chain: B1 chain with C71Q
modifications: C5a anaphylatoxin
notes: comparison agonist

Concentration up to which tested and agonist activity not detected (calcium rise) (C5a receptor [1]): > 1 µM
B11: C5a(1-70,T1M,C27S,M70C) (protein, UniProt P01031 678-747, looked up, fragment T1M C27S M70C)
chain: MLQKKIEEIAAKYKHSVVKKCCYDGASVNNDETCEQRAARISLGPRCIKAFTECCVVASQLRANISHKDC
modifications: C5a anaphylatoxin

The next lines start with the molecule.

B2: C5a(1-71,T1M,C27S,Q71D) (protein, UniProt P01031 678-748, looked up, fragment T1M C27S Q71D)
chain: B1 chain with C71D
modifications: C5a anaphylatoxin
notes: comparison agonist
Ki (C5a receptor [2]): 8.5 nM

B4: C5a(1-71,T1M,C27S,Q71S) (protein, UniProt P01031 678-748, looked up, fragment T1M C27S Q71S)
chain: B1 chain with C71S
modifications: C5a anaphylatoxin
notes: comparison agonist
Ki (C5a receptor [2]): 7.5 nM

B5: C5a(1-71,T1M,C27S,Q71R) (protein, UniProt P01031 678-748, looked up, fragment T1M C27S Q71R)
chain: B1 chain with C71R
modifications: C5a anaphylatoxin
notes: comparison agonist
Ki (C5a receptor [2]): 0.35 nM

B6: Analogue 22: dimeric form of analogue No. 8, disulfide linked through the C-terminal cysteines (protein, UniProt P01031 678-748, looked up, fragment T1M C27S Q71C)
chain: B1 chain
modifications: C5a anaphylatoxin disulfide-linked dimer
notes: dimeric form of analogue No. 8, disulfide linked through the C-terminal cysteines
Ki (C5a receptor [2]): 0.04 nM

B8: C5a(1-71,T1M,C27S,Q71L) (protein, UniProt P01031 678-748, looked up, fragment T1M C27S Q71L)
chain: B1 chain with C71L
modifications: C5a anaphylatoxin
notes: comparison agonist
Ki (C5a receptor [2]): 0.035 nM

B9: C5a(1-71,T1M,C27S,H67F,Q71C) (protein, UniProt P01031 678-748, looked up, fragment T1M C27S H67F Q71C)
chain: B1 chain with H67F
modifications: C5a anaphylatoxin
Ki (C5a receptor [2]): 0.1 nM
Concentration up to which tested and agonist activity not detected (calcium rise) (C5a receptor [1]): > 0.8 µM

B10: C5a(1-72,T1M,C27S,L72C) (protein, UniProt P01031 678-749, looked up, fragment T1M C27S L72C)
chain: MLQKKIEEIAAKYKHSVVKKCCYDGASVNNDETCEQRAARISLGPRCIKAFTECCVVASQLRANISHKDMQC
modifications: C5a anaphylatoxin
Ki (C5a receptor [2]): 0.9 nM
Concentration up to which tested and agonist activity not detected (calcium rise) (C5a receptor [1]): > 1.5 µM
